The text below walks through data of article PMC10935766 (2024).

Changes are numbered by the printed parent chain. Names and notes keep the numbering of the source. Read-outs that look alike come from different tables or passages of the source. Non-standard residues stand in square brackets, D forms with d. No end group written: not given here. pY = N[C@@H](Cc1ccc(OP(=O)(O)O)cc1)C(=O)O

For test [1], the target named is E6AP AZUL (Homo sapiens) (UniProt Q05086). The following applies: cited from earlier work.
The target is the same in test [2]. Description: SPR. The following applies: cited from earlier work.
Test [3] has the same target. Description: ITC. The following applies: cited from earlier work.
In test [4] the target is T1, E6AP AZUL 24-87 (Homo sapiens, UniProt Q05086).
T1 chain: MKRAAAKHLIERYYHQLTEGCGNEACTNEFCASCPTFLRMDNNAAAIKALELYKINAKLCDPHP
Kind of test: fluorescence competition (50 nM S358C-acrylodan, 10 nM AZUL).

Test [5] addresses T1, E6AP AZUL 24-87. Description: ITC. A general note: In ITC the heat of successive injections is recorded.
Test [6] deals with T1, E6AP AZUL 24-87. Description: fluorescence.
For test [7], the target named is T1, E6AP AZUL 24-87. Description: fluorescence (dual probe).
For test [8], the target named is T1, E6AP AZUL 24-87. Kind of test: fluorescence competition (25 nM S358C-acrylodan:AZUL).
Test [9] deals with T1, E6AP AZUL 24-87. Kind of test: fluorescence competition (25 nM S337C-Atto610:AZUL).
Test [10] concerns the target T1, E6AP AZUL 24-87. Description: fluorescence competition (100 nM S358C-acrylodan:AZUL).
For test [11], the target named is T1, E6AP AZUL 24-87. Kind of test: fluorescence competition (10 nM S337C-Atto610:AZUL).

Broadly, the Kd is the concentration at which binding is half-saturated. Broadly, the Ki is the dissociation constant of the complex between target and ligand, obtained from inhibition or displacement.

Turning to Rpn10 322-366 (from UniProt P55036), the dissociation constant (Kd) in the test with E6AP AZUL (Homo sapiens) [1] is 189 nM.
For Rpn10 RAZUL (from UniProt P55036), the Kd with E6AP AZUL (Homo sapiens) [2] was 11.6 nM; with E6AP AZUL (Homo sapiens) [3], 8.1 nM.

B1: Rpn10 RAZUL peptide Y326p 322-366 (peptide)
chain: EEDD[pY]DVMQDPEFLQSVLENLPGVDPNNEAIRNAMGSLASQATKD
In the test with E6AP AZUL 24-87 [4], B1 gave a Ki of 42.6 nM.

B2: Rpn10 RAZUL S361C 305-377 (protein)
chain: SADIDASSAMDTSEPAKEEDDYDVMQDPEFLQSVLENLPGVDPNNEAIRNAMGSLACQATKDGKKDKKEEDKK
B2: the Kd in the test with E6AP AZUL 24-87 [5] turned out to be 6.9 nM.

B3: Rpn10 RAZUL S358C-acrylodan 305-377 (protein)
chain: B2 chain with C57S
modifications: S358C labeled with acrylodan
For B3, the Kd in the test with E6AP AZUL 24-87 [6] is around 18 nM; with E6AP AZUL 24-87 [7] it was 2.97 nM.

B4: Rpn10 RAZUL S337C-acrylodan 305-377 (protein)
chain: B2 chain with C57S
modifications: S337C labeled with acrylodan
Molecule B4 displayed a Kd with E6AP AZUL 24-87 [5] below 35 nM.

B5: Rpn10 RAZUL S358C 305-377 (protein)
chain: B2 chain with S54C, C57S
In the test with E6AP AZUL 24-87 [5], B5 displayed a Kd below 30 nM.

B6: Rpn10 RAZUL S337C-Atto610 305-377 (protein)
chain: B2 chain with C57S
modifications: S337C labeled with Atto610
Molecule B6 registered a Kd with E6AP AZUL 24-87 [7] of 16.3 nM.

B7: Rpn10 RAZUL S337C 305-377 (protein)
chain: B2 chain with S33C, C57S
With B7, in the test with E6AP AZUL 24-87 [5], the dissociation constant (Kd) is below 30 nM.

B8: Rpn10 RAZUL peptide 322-366 (peptide)
chain: EEDDYDVMQDPEFLQSVLENLPGVDPNNEAIRNAMGSLASQATKD
B8: the inhibition constant (Ki) with E6AP AZUL 24-87 [8] came out at 1260 nM; with E6AP AZUL 24-87 [9], 780 nM; with E6AP AZUL 24-87 [4], 28.5 nM; with E6AP AZUL 24-87 [10], 18.2 µM; with E6AP AZUL 24-87 [11] it was 664 nM.
